Experimental data: patent US20260062456A1 (ALPINE IMMUNE SCIENCES, published 2026)
Values belong to the binder of their own block, whether it stands above or below them.

Experiments:
[1] = target: T1, CD96 (UniProt P40200 22-585, limits assumed); assay: flow cytometry, cells expressing CD96
T1 sequence (looked up): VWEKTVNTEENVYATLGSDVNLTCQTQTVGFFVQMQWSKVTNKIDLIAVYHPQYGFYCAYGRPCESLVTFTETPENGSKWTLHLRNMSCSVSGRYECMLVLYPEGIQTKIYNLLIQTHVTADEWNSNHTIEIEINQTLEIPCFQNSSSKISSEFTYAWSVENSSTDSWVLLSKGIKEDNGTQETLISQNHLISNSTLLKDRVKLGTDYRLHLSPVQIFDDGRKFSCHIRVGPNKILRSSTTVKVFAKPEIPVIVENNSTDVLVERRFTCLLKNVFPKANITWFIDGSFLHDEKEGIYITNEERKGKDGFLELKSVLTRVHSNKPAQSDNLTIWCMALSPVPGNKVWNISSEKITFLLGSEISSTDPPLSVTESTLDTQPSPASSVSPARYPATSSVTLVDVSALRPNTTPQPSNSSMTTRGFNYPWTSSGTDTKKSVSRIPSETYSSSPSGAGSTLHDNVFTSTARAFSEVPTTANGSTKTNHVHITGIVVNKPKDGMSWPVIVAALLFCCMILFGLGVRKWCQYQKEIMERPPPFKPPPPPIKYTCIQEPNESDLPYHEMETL

[2] = target: human PD-1 stably expressed on Jurkat/IL-2 reporter cells (Jurkat/PD-1 cells) (human, UniProt Q15116 21-288); assay: flow cytometry, Jurkat/PD-1 cells, 20 nM
human PD-1 stably expressed on Jurkat/IL-2 reporter cells (Jurkat/PD-1 cells) (human, UniProt Q15116 21-288), sequence (Q15116 21-288): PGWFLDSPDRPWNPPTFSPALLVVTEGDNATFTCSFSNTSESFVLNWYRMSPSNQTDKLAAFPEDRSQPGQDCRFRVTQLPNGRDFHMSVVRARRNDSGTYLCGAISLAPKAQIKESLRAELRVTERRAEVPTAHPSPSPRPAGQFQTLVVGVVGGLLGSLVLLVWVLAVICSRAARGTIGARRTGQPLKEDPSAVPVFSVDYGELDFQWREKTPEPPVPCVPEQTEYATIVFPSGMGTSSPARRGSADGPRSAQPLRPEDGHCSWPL

[3] = target: T2, human TIGIT stably expressed on Jurkat/IL-2 reporter cells (Jurkat/TIGIT cells) (human, UniProt Q495A1 22-244); assay: flow cytometry, Jurkat/TIGIT cells, 20 nM
T2 sequence: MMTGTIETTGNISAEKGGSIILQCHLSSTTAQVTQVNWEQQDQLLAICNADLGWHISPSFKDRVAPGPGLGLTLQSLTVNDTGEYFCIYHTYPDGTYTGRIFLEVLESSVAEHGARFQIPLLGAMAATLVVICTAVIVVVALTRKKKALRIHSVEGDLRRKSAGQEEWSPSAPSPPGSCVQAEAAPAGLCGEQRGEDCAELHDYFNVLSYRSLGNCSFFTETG

[4] = target: human PD-1 stably expressed on Jurkat/IL-2 reporter cells (Jurkat/PD-1 cells) (human, UniProt Q15116 25-288); assay: cell-based or functional assay
human PD-1 stably expressed on Jurkat/IL-2 reporter cells (Jurkat/PD-1 cells) (human, UniProt Q15116 25-288), sequence (Q15116 25-288): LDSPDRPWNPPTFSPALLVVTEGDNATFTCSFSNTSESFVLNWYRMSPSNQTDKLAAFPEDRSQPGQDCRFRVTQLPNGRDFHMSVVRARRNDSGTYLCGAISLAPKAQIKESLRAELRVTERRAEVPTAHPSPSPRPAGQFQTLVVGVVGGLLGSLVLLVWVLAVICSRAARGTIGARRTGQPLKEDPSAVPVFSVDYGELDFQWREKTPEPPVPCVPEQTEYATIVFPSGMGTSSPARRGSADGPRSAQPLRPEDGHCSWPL

[5] = target: T3, human TIGIT stably expressed on Jurkat/IL-2 reporter cells (Jurkat/TIGIT cells) (human, UniProt Q495A1 22-244); assay: cell-based or functional assay
T3 sequence (looked up): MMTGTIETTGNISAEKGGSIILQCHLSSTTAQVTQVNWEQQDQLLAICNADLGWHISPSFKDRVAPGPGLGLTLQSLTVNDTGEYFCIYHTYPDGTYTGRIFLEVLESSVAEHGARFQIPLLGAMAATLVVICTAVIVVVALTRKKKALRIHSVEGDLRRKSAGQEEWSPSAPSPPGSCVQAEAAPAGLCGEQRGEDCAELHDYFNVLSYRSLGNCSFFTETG

[6] = target: CD28 (UniProt P10747 19-220); assay: flow cytometry, HEK293 cells transfected with CD28

B1: CD112-IgV (Fc fusion, not shown: a dimerising Fc or GST)
chain: QDVRVQVLPEVRGQLGGTVELPCHLLPPVPGLYISLVTWQRPDAPANHQNVAAFHPKMGPSFPSPKPGSERLSFVSAKQSTGQDTEAELQDATLALHGLTVEDEGNYTCEFATFPKGSVRGMTWLRV
- MFI at 25 nM [1]: 1170 MFI

B2: PD-L1/CD155 Stack 2 (Fc fusion)
chain: FTVTVPKDLYVVEYGSNMTIECKFPVEKQLDLAALIVYWEMEGKDIIQFVHGEEDQKAQHSSYRQRARLLKDQLSLGNAALQITDVKLQDAGVYRCMISYGGGADYKRITVKVNAGGGGSGGGGSEPKSSDKTHTCPPCPAPEAEGAPSVFLFPPKPKDTLMISRTPEVTCVVVDVSHEDPEVKFNWYVDGVEVHNAKTKPREEQYNSTYRVVSVLTVLHQDWLNGKEYKCKVSNKALPAPIEKTISKAKGQPREPQVYTLPPSRDELTKNQVSLTCLVKGFYPSDIAVEWESNGQPENNYKTTPPVLDSDGSFFLYSKLTVDKSRWQQGNVFSCSVMHEALHNHYTQKSLSLSPGKGGGGSGGGGSGGGGSWPPPGTGDVVVQAPTQVSGFLGDSVTLPCYLQVPNMEVTHVSQLTWARHGESGSMAVFHQTQGPWYAESKRLEFVAARLGAELRNASLRMFGLRVEDEGNYTCQFVTFPQRSRSVDIWLRVL
- MFI at 20 nM [2]: 69800 MFI
- MFI at 20 nM [3]: 36500 MFI

B3: PD-L1/CD155 Stack 3: (CD155 IgV) (G4S)3 (PD-L1 IgV) (G4S)2 Fc (Fc fusion)
chain: WPPPGTGDVVVQAPTQVSGFLGDSVTLPCYLQVPNMEVTHVSQLTWARHGESGSMAVFHQTQGPWYAESKRLEFVAARLGAELRNASLRMFGLRVEDEGNYTCQFVTFPQRSRSVDIWLRVLGGGGSGGGGSGGGGSFTVTVPKDLYVVEYGSNMTIECKFPVEKQLDLAALIVYWEMEGKDIIQFVHGEEDQKAQHSSYRQRARLLKDQLSLGNAALQITDVKLQDAGVYRCMISYGGGADYKRITVKVNAGGGGSGGGGSEPKSSDKTHTCPPCPAPEAEGAPSVFLFPPKPKDTLMISRTPEVTCVVVDVSHEDPEVKFNWYVDGVEVHNAKTKPREEQYNSTYRVVSVLTVLHQDWLNGKEYKCKVSNKALPAPIEKTISKAKGQPREPQVYTLPPSRDELTKNQVSLTCLVKGFYPSDIAVEWESNGQPENNYKTTPPVLDSDGSFFLYSKLTVDKSRWQQGNVFSCSVMHEALHNHYTQKSLSLSPGK
- Fold Increase Compared to non-stack variant CD155 IgV-Fc control [4]: 1.3 fold
- Fold Increase Compared to non-stack variant PD-L1 IgV-Fc control [4]: 0.5 fold
- Fold Increase Compared to variant PD-L1 IgV-Fc and variant CD155 IgV-Fc [4]: 0.6 fold
- RLU [4]: 434 RLU
- Fold Increase Compared to non-stack variant CD155 IgV-Fc control [5]: 1.3 fold
- Fold Increase Compared to non-stack variant PD-L1 IgV-Fc control [5]: 0.5 fold
- Fold Increase Compared to variant PD-L1 IgV-Fc and variant CD155 IgV-Fc [5]: 0.6 fold
- RLU [5]: 434 RLU

B4: PD-L1/CD155 Stack 3 (Fc fusion)
chain: WPPPGTGDVVVQAPTQVSGFLGDSVTLPCYLQVPNMEVTHVSQLTWARHGESGSMAVFHQTQGPWYAESKRLEFVAARLGAELRNASLRMFGLRVEDEGNYTCQFVTFPQRSRSVDIWLRVLGGGGSGGGGSGGGGSFTVTVPKDLYVVEYGSNMTIECKFPVEKQLDLAALIVYWEMEGKDIIQFVHGEEDQKAQHSSYRQRARLLKDQLSLGNAALQITDVKLQDAGVYRCMISYGGGADYKRITVKVNAGGGGSGGGGSEPKSSDKTHTCPPCPAPEAEGAPSVFLFPPKPKDTLMISRTPEVTCVVVDVSHEDPEVKFNWYVDGVEVHNAKTKPREEQYNSTYRVVSVLTVLHQDWLNGKEYKCKVSNKALPAPIEKTISKAKGQPREPQVYTLPPSRDELTKNQVSLTCLVKGFYPSDIAVEWESNGQPENNYKTTPPVLDSDGSFFLYSKLTVDKSRWQQGNVFSCSVMHEALHNHYTQKSLSLSPGK
- MFI at 20 nM [2]: 47300 MFI
- MFI at 20 nM [3]: 81800 MFI

B9: PD-L1/CD155 Stack 1 (Fc fusion)
chain: WPPPGTGDVVVQAPTQVSGFLGDSVTLPCYLQVPNMEVTHVSQLTWARHGESGSMAVFHQTQGPWYAESKRLEFVAARLGAELRNASLRMFGLRVEDEGNYTCQFVTFPQRSRSVDIWLRVLGGGGSGGGGSEPKSSDKTHTCPPCPAPEAEGAPSVFLFPPKPKDTLMISRTPEVTCVVVDVSHEDPEVKFNWYVDGVEVHNAKTKPREEQYNSTYRVVSVLTVLHQDWLNGKEYKCKVSNKALPAPIEKTISKAKGQPREPQVYTLPPSRDELTKNQVSLTCLVKGFYPSDIAVEWESNGQPENNYKTTPPVLDSDGSFFLYSKLTVDKSRWQQGNVFSCSVMHEALHNHYTQKSLSLSPGKGGGGSGGGGSGGGGSFTVTVPKDLYVVEYGSNMTIECKFPVEKQLDLAALIVYWEMEGKDIIQFVHGEEDQKAQHSSYRQRARLLKDQLSLGNAALQITDVKLQDAGVYRCMISYGGGADYKRITVKVNA
- MFI at 20 nM [2]: 61800 MFI
- MFI at 20 nM [3]: 80700 MFI

Second part, the binder after the results:

- MFI at 66.6 nM [6]: 3070 MFI
B5: WT CD80 ECD Fc (Fc fusion, not shown: a dimerising Fc or GST)
chain: VIHVTKEVKEVATLSCGHNVSVEELAQTRIYWQKEKKMVLTMMSGDMNIWPEYKNRTIFDITNNLSIVILALRPSDEGTYECVVLKYEKDAFKREHLAEVTLSVKADFPTPSISDFEIPTSNIRRIICSTSGGFPEPHLSWLENGEELNAINTTVSQDPETELYAVSSKLDFNMTTNHSFMCLIKYGHLRVNQTFNWNTTKQEHFPDN

- MFI at 20 nM [2]: 511 MFI
B6: Wild-type CD155-ECD-Fc (Fc fusion, not shown: a dimerising Fc or GST)
chain: WPPPGTGDVVVQAPTQVPGFLGDSVTLPCYLQVPNMEVTHVSQLTWARHGESGSMAVFHQTQGPSYSESKRLEFVAARLGAELRNASLRMFGLRVEDEGNYTCLFVTFPQGSRSVDIWLRVLAKPQNTAEVQKVQLTGEPVPMARCVSTGGRPPAQITWHSDLGGMPNTSQVPGFLSGTVTVTSLWILVPSSQVDGKNVTCKVEHESFEKPQLLTVNLTVYYPPEVSISGYDNNWYLGQNEATLTCDARSNPEPTGYNWSTTMGPLPPFAVAQGAQLLIRPVDKPINTTLICNVTNALGARQAELTVQVKEGPPSEHSGISRN

- Fold Increase Compared to non-stack variant CD155 IgV-Fc control [4]: 5.6 fold
- Fold Increase Compared to non-stack variant PD-L1 IgV-Fc control [4]: 2 fold
- Fold Increase Compared to variant PD-L1 IgV-Fc and variant CD155 IgV-Fc [4]: 2.7 fold
- RLU [4]: 1920 RLU
- Fold Increase Compared to non-stack variant CD155 IgV-Fc control [5]: 5.6 fold
- Fold Increase Compared to non-stack variant PD-L1 IgV-Fc control [5]: 2 fold
- Fold Increase Compared to variant PD-L1 IgV-Fc and variant CD155 IgV-Fc [5]: 2.7 fold
- RLU [5]: 1920 RLU
B7: PD-L1/CD155 Stack 4: (PD-L1 IgV) (G4S)3 (CD155 IgV) (G4S)2 Fc (Fc fusion)
chain: FTVTVPKDLYVVEYGSNMTIECKFPVEKQLDLAALIVYWEMEGKDIIQFVHGEEDQKAQHSSYRQRARLLKDQLSLGNAALQITDVKLQDAGVYRCMISYGGGADYKRITVKVNAGGGGSGGGGSGGGGSWPPPGTGDVVVQAPTQVSGFLGDSVTLPCYLQVPNMEVTHVSQLTWARHGESGSMAVFHQTQGPWYAESKRLEFVAARLGAELRNASLRMFGLRVEDEGNYTCQFVTFPQRSRSVDIWLRVLGGGGSGGGGSEPKSSDKTHTCPPCPAPEAEGAPSVFLFPPKPKDTLMISRTPEVTCVVVDVSHEDPEVKFNWYVDGVEVHNAKTKPREEQYNSTYRVVSVLTVLHQDWLNGKEYKCKVSNKALPAPIEKTISKAKGQPREPQVYTLPPSRDELTKNQVSLTCLVKGFYPSDIAVEWESNGQPENNYKTTPPVLDSDGSFFLYSKLTVDKSRWQQGNVFSCSVMHEALHNHYTQKSLSLSPGK

- MFI at 20 nM [2]: 78000 MFI
- MFI at 20 nM [3]: 60500 MFI
B8: PD-L1/CD155 Stack 4 (Fc fusion)
chain: FTVTVPKDLYVVEYGSNMTIECKFPVEKQLDLAALIVYWEMEGKDIIQFVHGEEDQKAQHSSYRQRARLLKDQLSLGNAALQITDVKLQDAGVYRCMISYGGGADYKRITVKVNAGGGGSGGGGSGGGGSWPPPGTGDVVVQAPTQVSGFLGDSVTLPCYLQVPNMEVTHVSQLTWARHGESGSMAVFHQTQGPWYAESKRLEFVAARLGAELRNASLRMFGLRVEDEGNYTCQFVTFPQRSRSVDIWLRVLGGGGSGGGGSEPKSSDKTHTCPPCPAPEAEGAPSVFLFPPKPKDTLMISRTPEVTCVVVDVSHEDPEVKFNWYVDGVEVHNAKTKPREEQYNSTYRVVSVLTVLHQDWLNGKEYKCKVSNKALPAPIEKTISKAKGQPREPQVYTLPPSRDELTKNQVSLTCLVKGFYPSDIAVEWESNGQPENNYKTTPPVLDSDGSFFLYSKLTVDKSRWQQGNVFSCSVMHEALHNHYTQKSLSLSPGK
